Columns and labels:
[1] = tested on: GFP-trypsin recognition peptide inserted modified protein
[2] = tested on: GFP-caspase-3 recognition peptide inserted modified protein

| Substance | FRET between quantum dot and GFP after protease treatment (37 C, 120 minutes) [1] | FRET waveform pattern, simultaneous DNase/trypsin assay (QD565 with GFP of FIG. 5A) [1] | peak wavelength of fluorescence intensity [1] | FRET between quantum dot and GFP after protease treatment (30 C, 120 minutes) [2] | peak wavelength of fluorescence intensity [2] |
| --- | --- | --- | --- | --- | --- |
| Trypsin | the disappearance of FRET was observed | it was observed that the peak around 510 nm shifted | shifted from 513 nm (untreated with trypsin) to 508 nm (treated with trypsin) | – | – |
| Caspase-3 (Medical & Biological Laboratories) | – | – | – | the disappearance of FRET was observed | shifted from 510 nm (untreated with trypsin) to 506 nm (treated with trypsin) |

Source: patent US20090117551
